The record followed here is patent publication US20140018288A1, “X-DING-CD4 Peptide” (priority 2012, published 2014).

The subject of one assay is NL4-3 HIV-1 isolate. Kind of assay: MAGI assay of HIV-1 replication in MAGI-CCR-5 cells. Format: cell-based. The following applies: MAGI-CCR-5 cells, NL4-3 HIV-1. As for the experimental part:
The antiviral activity of rX-DING-CD4^pep was tested by MAGI assay. […] Subsequently, cells were exposed to rX-DING-CD4^pep treatment in the presence of DMEM supplemented with 5% fetal bovine serum, antibiotics, glutamate and […] DEAE dextran. […] Replication of virus was evaluated forty eight hours later after fixation of cells with 1% formaldehyde and 0.2% glutaraldehyde in PBS. Expression of β-galactosidase was visualized by 50 min exposure to X-GAL (5-bromo-4-chloro-3-indolyl-β-D-galactopyranoside), 0.4 mg/ml 2 mM MgCl2, 4 mM potassium ferricyanide at 37° C. After enumeration of the infected (blue) cells, all cells were lysed and subjected to the protein assay (Bio-Rad). All data were adjusted by total protein concentration and anti-viral activity was calculated as percent inhibition. The infected untreated and uninfected cells served as (+) and (−) controls to calculate 100% virus infectivity. The inhibition values for HIV-1 replication were calculated based on the formula [(R1−R0)×100/Z]-100; where R1 is the value obtained from cells infected by HIV-1 and treated with specific dilution of X-DING-CD4^pep and R^0 is the basal value obtained from the uninfected and untreated cells; Z is the absolute HIV-1 replication value calculated as Z═Rmax−R0, where Rmax is the value representing 100% of HIV-1 replication in X-DING-CD4^pep untreated cells.

The test system of a further assay is X-DING-CD4 mRNA. Kind of assay: Induction of X-DING-CD4 mRNA expression in 1G5 cells (qRT-PCR). Format: cell-based. Particulars: 6 hours, 200 ng/ml. As for the experimental part: The sX-DING-CD4 may be released from the macropinosome to endoplasmic reticulum (ER) and cause induction of IFNα, which in turn induces the expression of X-DING-CD4 mRNA and endogenous X-DING-CD4 protein (step 2). The induction of X-DING-CD4 mRNA by sX-DING-CD4 was tested in 1G5 cells. Briefly, three groups of 1G5 cells were treated for 6 hours with NL4-3 HIV-1 at MOI of 0.1, 200 ng/ml native X-DING-CD4 protein, and 1-126 rX-DING-CD4 peptide (i.e., rX-DING-CD4^pep), respectively. […] The eX-DING-CD4, derived from the newly synthesized X-DING-CD4, binds CN and is transported into the nucleus where it blocks LTR transcription (steps 2-7).
Two peptide fragments from the N-terminal region of X-DING-CD4 were synthesized and their activities in inducing IFN-α and X-DING-CD4 mRNA expressions were determined by qRT-PCR. The concentration of proteins used in the assays was 200 ng/ml except for the combination of XD-1 and XD-4 where we used 100 ng/ml of each peptide. The 1-126 rX-DING-CD4 and peptide C3 p16 served as positive and negative controls, respectively. The C3 Peptide P16 was derived from the C3d component of serum complement. C3 Peptide P16 regulates B cells, but not T cells, through interacting with the gp140 C3d receptor (CR2).

As a reminder, the IC50 is the concentration that inhibits the measured activity by half. Low readings indicate greater potency in that assay, high ones weaker potency in that assay. Broadly, the IC80 is the concentration needed for an effect of 80%. Low readings indicate an effect from little substance, high ones a need for much substance.

B1: MADINGGGATLPQPLYQTSGVLTAGFAPYIGVGSGKGKLAFLNNDYSQFGTGTKNVHWAGSDSKLTSTELSTYASTKQAAWGKLIQVPSVATSVAIPFNKAGSNAVDLSVDQLCGVFSGRITTWNQ (protein, listed as Homo sapiens)
chain: MADINGGGATLPQPLYQTSGVLTAGFAPYIGVGSGKGKLAFLNNDYSQFGTGTKNVHWAGSDSKLTSTELSTYASTKQAAWGKLIQVPSVATSVAIPFNKAGSNAVDLSVDQLCGVFSGRITTWNQ
In the assay with NL4-3 HIV-1 isolate, B1 gave a 50% inhibitory concentration (IC50) of 18.9 nM and an 80% effect concentration (IC80) of 151 nM. Further, the “expression of X-DING-CD4 mRNA” value with X-DING-CD4 mRNA is “induced expression of X-DING-CD4 mRNA”.
